Measurements taken from patent US6777536 (Harvard, dated 2004).

B1: Elf-1 (mouse EPH ligand family-1), expressed on the surface of transiently transfected COS cells (ligand)
chain: RNEDPARANADRYAVYWNRSNPRFQVSAVGDGGGYTVEVSINDYLDIYCPHYGAPLPPAERMERYILYMVNGEGHASCDHRQRGFKRWECNRPAAPGGPLKFSEKFQLFTPFSLGFEFRPGHEYYYISATPPNLVDRPCLRLKVYVRPTNETLYEAPEPIFTSN
modifications: C-terminal glycosyl phosphatidylinositol anchor (sensitive to PI-PLC); attachment residue not stated
notes: The full-length cDNA (209 amino acids) was transfected; also called muElf-1; cell surface Elf-1
B2: mek4-AP soluble receptor fusion protein (mouse Mek4 receptor extracellular domain fused to secreted human placental alkaline phosphatase) (receptor)
chain: ELSPQPSNEVNLLDSKTIQGELGWISYPSHGWEEISGVDEHYTPIRTYQVCNVMDHSQNNWLRTNWVPRNSAQKIYVELKFTLRDCNSIPLVLGTCKETFNLYYMESDDHGVKFREHQFTKIDTIAADESFTQMDLGDRILKLNTEIREVGPVNKKGFYLAFQDVGACVALVSVRVYFKKCPFTVKNLAMFPDTVPMDSQSLVEVRGSCVNNSKEEDPPRMYCSTEGEWLVPIGKCTCNAGYEERGFICQACRPGFYKASDGAAKCAKCPPHSSTQEDGSMNCRCENNYFRAEKDPPSMACARPPSAPRNVISNINETSVILDWSWPLDTGGRKDITFNIICKKCGWNVRQCEPCSPNVRFLPRQLGLTNTTVTVTDLLAHTNYTFEIDAVNGVSELSSPPRQYAAVSITTNQAAPSPVMTIKKDRTSRNSISLSWQEPEHPNGIILDYEVKYYQKQEQETSYTILRARGTNVTISSLKPDTTYVFQIRARTAAGYGTNSRKFEFETSPDSFSISGENSHGSSG
notes: extracellular domain; Used as unpurified conditioned supernatant of stably transfected NIH-3T3 cells; Apparent molecular weight about 150 kD; also called AP-mek4; not shown: secreted human placental alkaline phosphatase, as encoded by vector APtag-1 (Flanagan and Leder 1990)

Experiments:
[1] = target: T1, sek-AP soluble receptor fusion protein (mouse Sek receptor extracellular domain fused to secreted human … (mouse; human, UniProt Q03137 20-547); test: Scatchard analysis of AP fusion binding to COS cells transfected with Elf-1, colorimetric assay of bound AP activity
T1 construct: extracellular domain; Used as unpurified conditioned supernatant of stably transfected NIH-3T3 cells; Apparent molecular weight about 150 kD; also called Ap-sek; not shown: secreted human placental alkaline phosphatase, as encoded by vector APtag-1 (Flanagan and Leder 1990)
T1 sequence (Q03137 other isoform, or with tags, fused parts or gaps): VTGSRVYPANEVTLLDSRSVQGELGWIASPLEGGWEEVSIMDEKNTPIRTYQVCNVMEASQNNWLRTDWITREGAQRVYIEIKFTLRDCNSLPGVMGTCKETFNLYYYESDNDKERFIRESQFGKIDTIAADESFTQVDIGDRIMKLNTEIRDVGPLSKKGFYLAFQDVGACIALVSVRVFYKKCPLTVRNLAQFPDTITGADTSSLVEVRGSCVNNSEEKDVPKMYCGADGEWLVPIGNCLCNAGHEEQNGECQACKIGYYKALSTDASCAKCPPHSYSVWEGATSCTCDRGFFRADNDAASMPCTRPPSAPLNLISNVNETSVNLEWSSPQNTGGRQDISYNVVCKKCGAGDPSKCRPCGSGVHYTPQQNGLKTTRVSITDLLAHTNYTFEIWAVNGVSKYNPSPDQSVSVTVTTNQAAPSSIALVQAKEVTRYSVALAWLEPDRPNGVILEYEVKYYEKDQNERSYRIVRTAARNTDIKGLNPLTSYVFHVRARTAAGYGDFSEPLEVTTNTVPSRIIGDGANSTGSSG
Protocol: (§1) (FIGS. 3A and 3D) Cells were treated with saturating amounts of mek4-AP or sek-AP, or with AP, each at 500 OD/hr/ml. Columns show the average of two binding determinations, and error bars indicate the difference between the two. (FIGS. 3B–C and 3E–F) show the Scatchard analyses of binding. (FIGS. 3A–3C illsutrate binding to COS cells transfected with Elf-1, and FIGS. 3D–F show endogenous ligand expression by the BRL-3A cell line).

[2] = target: B2; test: as above
Protocol: as §1

[3] = target: T1, sek-AP soluble receptor fusion protein …; test: Scatchard analysis, COS cells transfected with Elf-1
[4] = target: B2; test: as above
[5] = target: T2, cell surface ligand expressed endogenously in the rat liver stromal cell line BRL-3A (rat); test: Scatchard analysis of AP fusion binding to BRL-3A cells (endogenous ligand)
T2 construct: PI-PLC sensitive (GPI-linked) cell surface ligand; also called endogenous ligand of BRL-3A cells
Protocol: as §1
A panel of cell lines was tested with mek4-AP and sek-AP for endogenous expression of a cell surface ligand. Briefly, cells were treated with supernatants containing mek4-AP, sek-AP or unfused AP as a control, each at 1,000 OD/hr/ml. The cells were then washed, lysed and assayed colorimetrically for bound AP activity. […] The highest binding was shown by the rat liver stromal cell line BRL-3A, the mink lung fibroblast line Mv1Lu, and two neural crest cell lines, NC7mycblue and NC7EIablue. The BRL-3A cell line was analyzed further. […] The number of binding sites per BRL-3A cell is approximately 50,000. In situ staining was also used to examine the cell surface binding of mek4-AP and sek-AP to BRL-3A cells, and indicated expression of the ligand over the whole cell surface.

Kd [1] [nM]	Kd [2] [nM]	Kd [3] [nM]	Kd [4] [nM]	Kd [5] [nM]	Binder
18	1.8	~10	~1		B1
				1.3	B2
